In article doi:10.1101/351726 (bioRxiv, 2018):

Tests used:
[1] = target: the molecule itself; assay: photon counting histogram
[2] = target: the molecule itself; assay: single-molecule fluorescence brightness analysis

B1: MyD88 death domain (1-117 a.a) fused to GFP at the N-terminus (domain or fragment, human, UniProt Q99836 1-117, looked up)
chain: MAAGGPGAGSAAPVSSTSSLPLAALNMRVRRRLSLFLNVRTQVAADWTALAEEMDFEYLEIRQLETQADPTGRLLDAWQGRPGASVGRLLELLTKLGRDDVLLELGPSIEEDCQKYI
- stoichiometry N [1]: 8
- stoichiometry N [2]: 8 to 10 GFP molecules

B2: MyD88 TIR domain (159-296 a.a) fused to GFP at the N-terminus (domain or fragment, human, UniProt Q99836 159-296, looked up)
chain: ERFDAFICYCPSDIQFVQEMIRQLEQTNYRLKLCVSDRDVLPGTCVWSIASELIEKRCRRMVVVVSDDYLQSKECDFQTKFALSLSPGAHQKRLIPIKYKAMKKEFPSILRFITVCDYTNPCTKSWFWTRLAKALSLP
- stoichiometry N [1]: 3
- stoichiometry N [2]: ~3 GFP fluorophores
